Measured values from publication PMC3580387.

Biological target: mCherry-Actin (UniProt P60709)
Experiment: FRET or BRET

| mean E% (FRET efficiency), Case 1 ROIs [%] | mean E% (FRET efficiency), Case 2 ROIs [%] | mean E% (FRET efficiency), Case 4 ROIs [%] | mean E% (FRET efficiency), Case 3 ROIs [%] | Substance |
| --- | --- | --- | --- | --- |
| 20.3 | 27.9 | 25.2 | – | TFP-N-WASP (Teal fluorescent protein fused to human N-WASP) (from UniProt O00401 1-505) (natural protein) |
| 29.6 | 25.4 | – | 39.3 | Venus-IQGAP1 (Venus fused to human IQGAP1) (from UniProt P46940 1-1657) (natural protein) |
